Data reported in patent US20260027220A1, “EPHA2 BCL-XL INHIBITOR ANTIBODY-DRUG CONJUGATES AND METHODS OF USE THEREOF” (Novartis AG, priority 2022, published 2026).
Where “and” joins values, the source holds several entries; their conditions need not be identical. Identical values can stand only once.

B1: 3207 (antibody, V domains shown)
VH: QVQLQQSGPGLVKPSQTLSLTCAISGDSVSSNSAAWSWIRQSPGRGLEWLGRIYYRSKWYNDYAVSVKSRITINPDTSKNQFSLQLNSVTPEDTAVYYCARLDHRYHEDTVYPGMDVWGQGTLVTVSS
VL: DIELTQPPSVSVAPGQTARISCSGDNLPAYTVTWYQQKPGQAPVLVIYDDSDRPSGIPERFSGSNSGNTATLTISGTQAEDEADYYCASWDPSSGVVFGGGTKLTVL
notes: the legend prints only '3207'; also called IgG (3207); IgG anti-chicken lysozyme antibody
B2: anti-EphA2 E152C S375C 1C1 (LC N92Q) hIgG1 (WT Heavy Chain) (antibody, V domains shown)
VH: EVQLLESGGGLVQPGGSLRLSCAASGFTFSHYMMAWVRQAPGKGLEWVSRIGPSGGPTHYADSVKGRFTISRDNSKNTLYLQMNSLRAEDTAVYYCAGYDSGYDYVAVAGPAEYFQHWGQGTLVTVSS
VL: DIQMTQSPSSLSASVGDRVTITCRASQSISTWLAWYQQKPGKAPKLLIYKASNLHTGVPSRFSGSGSGTEFSLTISGLQPDDFATYYCQQYQSYSRTFGQGTKVEIKR
notes: also called 1C1 N92Q IgG; DE-54-AX20
B3: anti-EphA2_1C1_DAR4_LC_N92Q_G77S (antibody, human IgG1, kappa, V domains shown)
VH: EVQLLESGGGLVQPGGSLRLSCAASGFTFSHYMMAWVRQAPGKGLEWVSRIGPSGGPTHYADSVKGRFTISRDNSKNTLYLQMNSLRAEDTAVYYCAGYDSGYDYVAVAGPAEYFQHWGQGTLVTVSS
VL: DIQMTQSPSSLSASVGDRVTITCRASQSISTWLAWYQQKPGKAPKLLIYKASNLHTGVPSRFSGSGSGTEFSLTISSLQPDDFATYYCQQYQSYSRTFGQGTKVEIKR
notes: also called HE-07-PV32
B4: anti-EphA2 E152C S375C 1C1 (LC S93Q) hIgG1 (WT Heavy Chain) (antibody, V domains shown)
VH: EVQLLESGGGLVQPGGSLRLSCAASGFTFSHYMMAWVRQAPGKGLEWVSRIGPSGGPTHYADSVKGRFTISRDNSKNTLYLQMNSLRAEDTAVYYCAGYDSGYDYVAVAGPAEYFQHWGQGTLVTVSS
VL: DIQMTQSPSSLSASVGDRVTITCRASQSISTWLAWYQQKPGKAPKLLIYKASNLHTGVPSRFSGSGSGTEFSLTISGLQPDDFATYYCQQYNQYSRTFGQGTKVEIKR
notes: also called DA-62-QP06
B5: anti-EphA2_1C1_DAR4_LC_N92Q_S72T_G77S (antibody, human IgG1, kappa, V domains shown)
VH: EVQLLESGGGLVQPGGSLRLSCAASGFTFSHYMMAWVRQAPGKGLEWVSRIGPSGGPTHYADSVKGRFTISRDNSKNTLYLQMNSLRAEDTAVYYCAGYDSGYDYVAVAGPAEYFQHWGQGTLVTVSS
VL: DIQMTQSPSSLSASVGDRVTITCRASQSISTWLAWYQQKPGKAPKLLIYKASNLHTGVPSRFSGSGSGTEFTLTISSLQPDDFATYYCQQYQSYSRTFGQGTKVEIKR
B6: anti-EphA2_1C1_DAR4_LC_N92Q_S72T (antibody, human IgG1, kappa, V domains shown)
VH: EVQLLESGGGLVQPGGSLRLSCAASGFTFSHYMMAWVRQAPGKGLEWVSRIGPSGGPTHYADSVKGRFTISRDNSKNTLYLQMNSLRAEDTAVYYCAGYDSGYDYVAVAGPAEYFQHWGQGTLVTVSS
VL: DIQMTQSPSSLSASVGDRVTITCRASQSISTWLAWYQQKPGKAPKLLIYKASNLHTGVPSRFSGSGSGTEFTLTISGLQPDDFATYYCQQYQSYSRTFGQGTKVEIKR
notes: also called HA-13-AF39

What was measured:
[1] = target: T1, human EphA2 expressed on HKB-11 cells (human, UniProt P29317 24-976); assay: FACS titration on HKB-11 cells transduced to overexpress EphA2 (200 to 0.003 nM antibody, Alexa Fluor 647 anti-human IgG, MFI of live cells)
T1 construct: The HKB-11 cells were transduced to overexpress EphA2; also called HKB-11 EphA2+ cell line
T1 sequence (P29317 24-976 limits assumed): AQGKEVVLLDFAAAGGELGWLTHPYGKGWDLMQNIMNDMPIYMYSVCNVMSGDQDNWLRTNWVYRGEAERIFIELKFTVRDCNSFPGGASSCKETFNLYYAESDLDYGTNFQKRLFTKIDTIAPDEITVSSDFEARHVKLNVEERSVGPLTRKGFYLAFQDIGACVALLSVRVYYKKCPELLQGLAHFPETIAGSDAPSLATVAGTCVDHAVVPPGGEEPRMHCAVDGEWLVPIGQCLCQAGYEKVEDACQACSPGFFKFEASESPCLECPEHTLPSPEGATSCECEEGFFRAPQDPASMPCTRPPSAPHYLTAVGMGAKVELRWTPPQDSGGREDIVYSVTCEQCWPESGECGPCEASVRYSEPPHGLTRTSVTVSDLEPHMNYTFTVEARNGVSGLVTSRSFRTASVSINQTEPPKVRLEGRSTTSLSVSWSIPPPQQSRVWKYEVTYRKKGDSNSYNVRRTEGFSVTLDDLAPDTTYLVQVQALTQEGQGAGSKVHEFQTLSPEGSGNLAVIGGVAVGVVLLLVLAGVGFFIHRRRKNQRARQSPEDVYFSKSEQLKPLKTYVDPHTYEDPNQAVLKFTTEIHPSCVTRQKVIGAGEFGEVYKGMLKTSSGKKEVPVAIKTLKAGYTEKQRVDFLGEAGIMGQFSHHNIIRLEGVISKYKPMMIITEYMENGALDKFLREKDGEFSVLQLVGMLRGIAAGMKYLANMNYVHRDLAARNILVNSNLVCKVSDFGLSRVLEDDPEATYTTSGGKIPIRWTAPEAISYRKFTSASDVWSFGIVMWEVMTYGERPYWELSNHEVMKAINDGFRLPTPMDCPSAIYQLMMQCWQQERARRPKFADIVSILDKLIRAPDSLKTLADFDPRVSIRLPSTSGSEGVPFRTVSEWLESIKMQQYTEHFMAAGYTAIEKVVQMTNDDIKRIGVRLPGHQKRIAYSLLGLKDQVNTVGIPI
Method: (§1) The binding affinity of EphA2 antibodies on cells was evaluated using flow cytometry (FACS). […] Cell lines were cultured in media that is optimal for their growth at 5% CO₂, 37° C. in a tissue culture incubator. Cell viability and cell density were determined using a cell counter (Vi-Cell XR Cell Viability Analyzer, Beckman Coulter). […] All subsequent steps were performed on ice and in ice cold FACS buffer to prevent internalization of the receptor. Cells were resuspended in 100 μL of FACS buffer containing an 11-point serial dilution of test antibodies at final concentrations of 200 nM-0.003 nM. Cells were incubated at 4° C. for 45 minutes. Following incubation, cells were washed three times in ice cold PBS at 1000 rpm for 5 minutes with 200 μL FACS buffer. […] Cells were incubated in the dark at 4° C. for 45 minutes. Following incubation, cells were washed three times in ice cold PBS at 1000 rpm for 5 minutes with 200 μL FACS buffer. Cells were then resuspended in 100 μL FACS buffer containing DAPI (ThermoFisher, #D1306) staining followed by readout via flow cytometry (MACSQuant® Analyzer 10). Data was analyzed using FlowJo v10.8.1 to obtain MFI (Mean Fluorescence Intensity) on live cells. EC₅₀ values were calculated using the GraphPad Prism 9 software. There were three rounds of experiments performed to evaluate three groupings of EphA2 antibodies. […]

[2] = target: T1, human EphA2 expressed on HKB-11 cells; assay: flow cytometry on HKB-11 cells overexpressing EphA2; lot DE-54-AX20
Method: as §1

[3] = target: T1, human EphA2 expressed on HKB-11 cells; assay: KinExA avid equilibrium KD on cells, average of replicates
Method: (§2) Free antibody in equilibrium titration reactions were measured by KinExA using a KinExA 3200, Autosampler (Sapidyne). Data were analyzed using KinExA Pro 4-5-X (Sapidyne).
(§3) Anti-EphA2 antibody was diluted in PBS with 10% HI-FBS and 0.04% sodium azide to 2× the final concentration of binding sites needed for equilibrium titration. […] Cells and antibody were combined 1:1 in an eppendorf tube and incubated overnight, 4° C., rotating. Buffer and antibody alone samples were included. Cells were pelleted and supernatants were transferred to a 2 ml 96-well deep well plate covered with pierceable film.
Data were analyzed by n-Curve Analysis.

human EphA2 ectodomain = target: T2, human EphA2 ectodomain (human, UniProt P29317 24-537); assay: SPR (Biacore 8k), Fab-capture, 37C, 1:1 model;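 further: Anti-EphA2 IgG captured via immobilized anti-Fab, soluble EphA2 ectodomain as analyte at six twofold dilutions from 50 nM, HBS-EP+ pH 7.6 running buffer, double reference subtraction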
T2 construct: Soluble ectodomain used as the SPR analyte
T2 sequence (P29317 24-537 limits assumed): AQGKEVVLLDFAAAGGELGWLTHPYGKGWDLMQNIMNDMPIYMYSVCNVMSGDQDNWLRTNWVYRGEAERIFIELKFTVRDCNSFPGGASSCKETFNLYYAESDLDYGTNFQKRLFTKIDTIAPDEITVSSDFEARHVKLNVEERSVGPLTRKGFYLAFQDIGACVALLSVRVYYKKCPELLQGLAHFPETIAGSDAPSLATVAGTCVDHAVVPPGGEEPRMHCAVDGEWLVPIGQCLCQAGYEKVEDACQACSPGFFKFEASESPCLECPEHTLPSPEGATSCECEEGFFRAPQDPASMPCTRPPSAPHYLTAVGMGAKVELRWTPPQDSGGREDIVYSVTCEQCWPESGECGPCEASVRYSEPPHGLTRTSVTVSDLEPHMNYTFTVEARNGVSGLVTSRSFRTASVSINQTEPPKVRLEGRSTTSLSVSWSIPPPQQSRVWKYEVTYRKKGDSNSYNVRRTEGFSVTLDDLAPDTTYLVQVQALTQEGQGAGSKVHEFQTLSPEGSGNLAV
Method: (§4) A human Fab capture method was utilized in order to determine kinetics for the antibodies. […] Each channel has two flow cells. The reference flow cell contained only immobilized anti-Fab, whereas the reaction flow cell captured anti-EphA2 IgG through anti-Fab. HBS-EP+ Buffer, pH 7.6 was used as the running buffer. The soluble human, mouse and cyno EphA2 ectodomain flowed over both flow cells on 8 channels. The EphA2 ectodomain concentration started at 50 nM and was serially diluted at one part to one part (1:1) in the running buffer for six concentrations. The analysis chamber was kept at 37° C. Regeneration was performed at the end of each sample washing with the solution of 10 mM Glycine-HCl, pH 2.1 provided in the kit.
(§5) The data were analysed using the Biacore Insight Evaluation Software. Double reference subtraction was completed to generate the final data. The raw data was fitted to a 1:1 binding model, with parameter(s) Rₘₐₓ set to local.

cyno EphA2 ectodomain = target: T3, cyno EphA2 ectodomain (cyno, UniProt Q1KL86 25-537); assay: SPR (Biacore 8k), Fab-capture, 37C, 1:1 model;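 further: Anti-EphA2 IgG captured via immobilized anti-Fab, soluble EphA2 ectodomain as analyte at six twofold dilutions from 50 nM, HBS-EP+ pH 7.6 running buffer, double reference subtraction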
T3 construct: extracellular domain
T3 sequence (Q1KL86 25-537): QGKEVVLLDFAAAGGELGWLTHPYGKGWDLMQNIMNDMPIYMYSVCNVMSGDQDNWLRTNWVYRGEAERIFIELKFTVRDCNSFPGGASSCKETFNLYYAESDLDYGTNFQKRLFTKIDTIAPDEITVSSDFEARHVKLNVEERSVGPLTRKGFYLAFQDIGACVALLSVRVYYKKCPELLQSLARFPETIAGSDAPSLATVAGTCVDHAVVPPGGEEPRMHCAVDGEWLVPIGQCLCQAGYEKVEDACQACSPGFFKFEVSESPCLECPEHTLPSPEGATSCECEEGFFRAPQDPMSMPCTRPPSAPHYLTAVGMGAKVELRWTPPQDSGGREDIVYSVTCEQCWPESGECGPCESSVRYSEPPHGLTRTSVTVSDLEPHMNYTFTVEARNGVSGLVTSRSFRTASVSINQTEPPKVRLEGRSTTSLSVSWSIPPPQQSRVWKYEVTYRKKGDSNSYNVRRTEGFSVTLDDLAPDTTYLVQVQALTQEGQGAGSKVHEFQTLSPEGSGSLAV
Method: as §4, §5

mouse EphA2 ectodomain = target: T4, mouse EphA2 ectodomain (mouse, UniProt Q03145 26-538); assay: SPR (Biacore 8k), Fab-capture, 37C, 1:1 model;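 further: Anti-EphA2 IgG captured via immobilized anti-Fab, soluble EphA2 ectodomain as analyte at six twofold dilutions from 50 nM, HBS-EP+ pH 7.6 running buffer, double reference subtraction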
T4 construct: extracellular domain
T4 sequence (Q03145 26-538): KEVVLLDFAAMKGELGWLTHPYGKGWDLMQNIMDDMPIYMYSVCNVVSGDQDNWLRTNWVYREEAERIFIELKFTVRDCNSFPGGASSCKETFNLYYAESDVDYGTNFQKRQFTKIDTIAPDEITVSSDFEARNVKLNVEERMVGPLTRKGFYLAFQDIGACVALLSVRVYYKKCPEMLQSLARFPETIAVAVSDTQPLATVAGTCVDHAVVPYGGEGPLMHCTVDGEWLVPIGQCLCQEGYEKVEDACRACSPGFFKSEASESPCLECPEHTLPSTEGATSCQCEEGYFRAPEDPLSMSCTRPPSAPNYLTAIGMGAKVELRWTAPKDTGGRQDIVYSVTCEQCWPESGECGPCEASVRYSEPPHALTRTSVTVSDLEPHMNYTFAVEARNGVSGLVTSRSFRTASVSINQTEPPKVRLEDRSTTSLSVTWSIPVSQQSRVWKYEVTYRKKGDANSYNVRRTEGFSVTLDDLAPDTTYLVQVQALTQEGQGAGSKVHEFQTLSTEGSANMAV
Method: as §4, §5

[4] = target: T1, human EphA2 expressed on HKB-11 cells; assay: flow cytometry on HKB-11 cells overexpressing EphA2; lot VE-39-AK34
Method: as §1

[5] = target: T1, human EphA2 expressed on HKB-11 cells; assay: KinExA apparent (avid) equilibrium KD on human EphA2 HKB-11 cells
Method: as §2, §3
Data were analyzed by n-Curve Analysis.

[6] = target: T1, human EphA2 expressed on HKB-11 cells; assay: flow cytometry on HKB-11 cells overexpressing EphA2; lot HE-07-PV32
Method: as §1

[7] = target: T1, human EphA2 expressed on HKB-11 cells; assay: flow cytometry on HKB-11 cells overexpressing EphA2; lot DA-62-QP06
Method: as §1

[8] = target: T1, human EphA2 expressed on HKB-11 cells; assay: flow cytometry on HKB-11 cells overexpressing EphA2; lot PE-07-PN32
Method: as §1

[9] = target: T1, human EphA2 expressed on HKB-11 cells; assay: flow cytometry on HKB-11 cells overexpressing EphA2; lot HA-13-AF39
Method: as §1

Binder	Kd [3]	Kd (human EphA2 ectodomain)	koff (human EphA2 ectodomain)	kon (human EphA2 ectodomain)	Kd (cyno EphA2 ectodomain)	koff (cyno EphA2 ectodomain)	kon (cyno EphA2 ectodomain)	Kd (mouse EphA2 ectodomain)	koff (mouse EphA2 ectodomain)	kon (mouse EphA2 ectodomain)	Kd [5]	other results
B1												binding result [1]: no binding (tested: 200 nM)
B2	0.114 nM	196 nM	0.0531 s⁻¹	271000 M⁻¹ s⁻¹	230 nM	0.0719 s⁻¹	313000 M⁻¹ s⁻¹	385 nM	0.0661 s⁻¹	172000 M⁻¹ s⁻¹	0.089 nM and 0.138 nM	EC50 [2]: 3.83 nM; EC50 [4]: 1.95 nM
B3												EC50 [6]: 2.59 nM
B4		237 nM	0.0635 s⁻¹	268000 M⁻¹ s⁻¹	272 nM	0.338 s⁻¹	1.24e+06 M⁻¹ s⁻¹	335 nM	0.0552 s⁻¹	165000 M⁻¹ s⁻¹		EC50 [7]: 2.13 nM
B5	0.129 nM										0.124 nM and 0.134 nM	EC50 [8]: 1.81 nM
B6												EC50 [9]: 1.8 nM
